According to patent publication US20220389465A1, “METHODS OF REDUCING BIURET IN UREA COMPOSITIONS” (Regents of the University of Minnesota, priority 2019, published 2022):

Test system: T1, NC(=O)NC(N)=O
T1 construct: six-histidine tag (C); made in house; host or cells: Escherichia coli BL21(DE3)
Experiment: Inhibition of biuret hydrolase by urea, kinetic constants
Format: biochemical

Chain of biuret hydrolase (Rhizobium johnstonii 3841) (chain, as listed by the source): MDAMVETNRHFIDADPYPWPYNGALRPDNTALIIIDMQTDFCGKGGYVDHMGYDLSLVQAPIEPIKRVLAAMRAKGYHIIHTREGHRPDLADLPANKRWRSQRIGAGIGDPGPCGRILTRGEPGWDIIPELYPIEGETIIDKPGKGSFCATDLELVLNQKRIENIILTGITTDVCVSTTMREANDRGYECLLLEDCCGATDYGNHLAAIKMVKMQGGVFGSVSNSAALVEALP

biuret hydrolase (Rhizobium johnstonii 3841)
Km: 23 µM
